B1: Pistol ribozyme (parent)
chain: GGGUCGUUGUUCCAUAAUCGCGUGGAUAUGGCACGCAAGUUUCUACCGGGCACCGUAAAUGUCCGACUGGAGCCGUUCGGGCGGCUAUAAACAGACCUCAGGCCCGAAGCGUGGCGGCACCUGCCGCCGGUGGUAAAAAAGAUCGGAAGAGCACACGUCU

Variants of: B1
Experiment: aptazyme ON/OFF ratio, guanine; higher = stronger switching; co-transcriptional cleavage with and without guanine

Going from GGGUCGAACCGUCAUAAUCGCGUGGAUAUGGCACGCAAGUUUCUACCGGGCACCGUAAAUGUCCGACUGGAGCCGUUCGGGCGGCUAUAAACAGACCUCAGGCCCGAAGCGUGGCGGCACCUGCCGCCGGUGGUAAAAAAGAUCGGAAGAGCACACGUCU to GGGUCGAACCGGCAUAAUCGCGUGGAUAUGGCACGCAAGUUUCUACCGGGCACCGUAAAUGUCCGACUGGAGCCGUUCGGGCGGCUAUAAACAGACCUCAGGCCCGAAGCGUGGCGGCACCUGCCGCCGGUGGUAAAAAAGAUCGGAAGAGCACACGUCU, the “aptazyme ON/OFF ratio” value rises from 1.08 to 1.09.

Compared with GGGUCGAACCGACAUAAUCGCGUGGAUAUGGCACGCAAGUUUCUACCGGGCACCGUAAAUGUCCGACUGGAGCCGUUCGGGCGGCUAUAAACAGACCUCAGGCCCGAAGCGUGGCGGCACCUGCCGCCGGUGGUAAAAAAGAUCGGAAGAGCACACGUCU, GGGUCGAACGUCAAUAAUCGCGUGGAUAUGGCACGCAAGUUUCUACCGGGCACCGUAAAUGUCCGACUGGAGCCGUUCGGGCGGCUAUAAACAGACCUCAGGCCCGAAGCGUGGCGGCACCUGCCGCCGGUGGUAAAAAAGAUCGGAAGAGCACACGUCU is higher in “aptazyme ON/OFF ratio” value: 1.07 for the first, 1.24 for the second.

First: GGGUCGAACGUCUAUAAUCGCGUGGAUAUGGCACGCAAGUUUCUACCGGGCACCGUAAAUGUCCGACUGGAGCCGUUCGGGCGGCUAUAAACAGACCUCAGGCCCGAAGCGUGGCGGCACCUGCCGCCGGUGGUAAAAAAGAUCGGAAGAGCACACGUCU
Second: GGGUCGAACGUCGAUAAUCGCGUGGAUAUGGCACGCAAGUUUCUACCGGGCACCGUAAAUGUCCGACUGGAGCCGUUCGGGCGGCUAUAAACAGACCUCAGGCCCGAAGCGUGGCGGCACCUGCCGCCGGUGGUAAAAAAGAUCGGAAGAGCACACGUCU
The “aptazyme ON/OFF ratio” value of the first is higher: 1.56 for the first, 1.29 for the second.

First: GGGUCGAACGUCCAUAAUCGCGUGGAUAUGGCACGCAAGUUUCUACCGGGCACCGUAAAUGUCCGACUGGAGCCGUUCGGGCGGCUAUAAACAGACCUCAGGCCCGAAGCGUGGCGGCACCUGCCGCCGGUGGUAAAAAAGAUCGGAAGAGCACACGUCU
Second: GGGUCGAACCGAUAUAAUCGCGUGGAUAUGGCACGCAAGUUUCUACCGGGCACCGUAAAUGUCCGACUGGAGCCGUUCGGGCGGCUAUAAACAGACCUCAGGCCCGAAGCGUGGCGGCACCUGCCGCCGGUGGUAAAAAAGAUCGGAAGAGCACACGUCU
The “aptazyme ON/OFF ratio” value of the first is higher: 2.69 for the first, 1.03 for the second.

Compared with GGGUCGAACCGAGAUAAUCGCGUGGAUAUGGCACGCAAGUUUCUACCGGGCACCGUAAAUGUCCGACUGGAGCCGUUCGGGCGGCUAUAAACAGACCUCAGGCCCGAAGCGUGGCGGCACCUGCCGCCGGUGGUAAAAAAGAUCGGAAGAGCACACGUCU, GGGUCGAACCGAAAUAAUCGCGUGGAUAUGGCACGCAAGUUUCUACCGGGCACCGUAAAUGUCCGACUGGAGCCGUUCGGGCGGCUAUAAACAGACCUCAGGCCCGAAGCGUGGCGGCACCUGCCGCCGGUGGUAAAAAAGAUCGGAAGAGCACACGUCU is lower in “aptazyme ON/OFF ratio” value: 1.03 for the first, 0.981 for the second.

Compared with GGGUCGAACGUUGAUAAUCGCGUGGAUAUGGCACGCAAGUUUCUACCGGGCACCGUAAAUGUCCGACUGGAGCCGUUCGGGCGGCUAUAAACAGACCUCAGGCCCGAAGCGUGGCGGCACCUGCCGCCGGUGGUAAAAAAGAUCGGAAGAGCACACGUCU, GGGUCGAACGUUAAUAAUCGCGUGGAUAUGGCACGCAAGUUUCUACCGGGCACCGUAAAUGUCCGACUGGAGCCGUUCGGGCGGCUAUAAACAGACCUCAGGCCCGAAGCGUGGCGGCACCUGCCGCCGGUGGUAAAAAAGAUCGGAAGAGCACACGUCU is higher in “aptazyme ON/OFF ratio” value: 1.19 for the first, 1.22 for the second.

Compared with GGGUCGAACGUUUAUAAUCGCGUGGAUAUGGCACGCAAGUUUCUACCGGGCACCGUAAAUGUCCGACUGGAGCCGUUCGGGCGGCUAUAAACAGACCUCAGGCCCGAAGCGUGGCGGCACCUGCCGCCGGUGGUAAAAAAGAUCGGAAGAGCACACGUCU, GGGUCGAACCGUAAUAAUCGCGUGGAUAUGGCACGCAAGUUUCUACCGGGCACCGUAAAUGUCCGACUGGAGCCGUUCGGGCGGCUAUAAACAGACCUCAGGCCCGAAGCGUGGCGGCACCUGCCGCCGGUGGUAAAAAAGAUCGGAAGAGCACACGUCU is lower in “aptazyme ON/OFF ratio” value: 1.32 for the first, 1.02 for the second.

Compared with GGGUCGAACCGUGAUAAUCGCGUGGAUAUGGCACGCAAGUUUCUACCGGGCACCGUAAAUGUCCGACUGGAGCCGUUCGGGCGGCUAUAAACAGACCUCAGGCCCGAAGCGUGGCGGCACCUGCCGCCGGUGGUAAAAAAGAUCGGAAGAGCACACGUCU, GGGUCGAACCGUUAUAAUCGCGUGGAUAUGGCACGCAAGUUUCUACCGGGCACCGUAAAUGUCCGACUGGAGCCGUUCGGGCGGCUAUAAACAGACCUCAGGCCCGAAGCGUGGCGGCACCUGCCGCCGGUGGUAAAAAAGAUCGGAAGAGCACACGUCU is higher in “aptazyme ON/OFF ratio” value: 1.05 for the first, 1.06 for the second.

Compared with GGGUCGAACCGCCAUAAUCGCGUGGAUAUGGCACGCAAGUUUCUACCGGGCACCGUAAAUGUCCGACUGGAGCCGUUCGGGCGGCUAUAAACAGACCUCAGGCCCGAAGCGUGGCGGCACCUGCCGCCGGUGGUAAAAAAGAUCGGAAGAGCACACGUCU, GGGUCGAACCCCGAUAAUCGCGUGGAUAUGGCACGCAAGUUUCUACCGGGCACCGUAAAUGUCCGACUGGAGCCGUUCGGGCGGCUAUAAACAGACCUCAGGCCCGAAGCGUGGCGGCACCUGCCGCCGGUGGUAAAAAAGAUCGGAAGAGCACACGUCU is higher in “aptazyme ON/OFF ratio” value: 0.815 for the first, 1.07 for the second.

First: GGGUCGAACCCCUAUAAUCGCGUGGAUAUGGCACGCAAGUUUCUACCGGGCACCGUAAAUGUCCGACUGGAGCCGUUCGGGCGGCUAUAAACAGACCUCAGGCCCGAAGCGUGGCGGCACCUGCCGCCGGUGGUAAAAAAGAUCGGAAGAGCACACGUCU
Second: GGGUCGAACGUAGAUAAUCGCGUGGAUAUGGCACGCAAGUUUCUACCGGGCACCGUAAAUGUCCGACUGGAGCCGUUCGGGCGGCUAUAAACAGACCUCAGGCCCGAAGCGUGGCGGCACCUGCCGCCGGUGGUAAAAAAGAUCGGAAGAGCACACGUCU
The “aptazyme ON/OFF ratio” value of the first is lower: 1.04 for the first, 1.09 for the second.

First: GGGUCGAACGUAUAUAAUCGCGUGGAUAUGGCACGCAAGUUUCUACCGGGCACCGUAAAUGUCCGACUGGAGCCGUUCGGGCGGCUAUAAACAGACCUCAGGCCCGAAGCGUGGCGGCACCUGCCGCCGGUGGUAAAAAAGAUCGGAAGAGCACACGUCU
Second: GGGUCGAACGUAAAUAAUCGCGUGGAUAUGGCACGCAAGUUUCUACCGGGCACCGUAAAUGUCCGACUGGAGCCGUUCGGGCGGCUAUAAACAGACCUCAGGCCCGAAGCGUGGCGGCACCUGCCGCCGGUGGUAAAAAAGAUCGGAAGAGCACACGUCU
The “aptazyme ON/OFF ratio” value of the first is higher: 1.27 for the first, 1.18 for the second.

GGGUCGAACCGCGAUAAUCGCGUGGAUAUGGCACGCAAGUUUCUACCGGGCACCGUAAAUGUCCGACUGGAGCCGUUCGGGCGGCUAUAAACAGACCUCAGGCCCGAAGCGUGGCGGCACCUGCCGCCGGUGGUAAAAAAGAUCGGAAGAGCACACGUCU and GGGUCGAACCGCUAUAAUCGCGUGGAUAUGGCACGCAAGUUUCUACCGGGCACCGUAAAUGUCCGACUGGAGCCGUUCGGGCGGCUAUAAACAGACCUCAGGCCCGAAGCGUGGCGGCACCUGCCGCCGGUGGUAAAAAAGAUCGGAAGAGCACACGUCU are the same in “aptazyme ON/OFF ratio” value: 1.05 for the first, 1.05 for the second.

Compared with GGGUCGAACCGCAAUAAUCGCGUGGAUAUGGCACGCAAGUUUCUACCGGGCACCGUAAAUGUCCGACUGGAGCCGUUCGGGCGGCUAUAAACAGACCUCAGGCCCGAAGCGUGGCGGCACCUGCCGCCGGUGGUAAAAAAGAUCGGAAGAGCACACGUCU, GGGUCGAACGUGCAUAAUCGCGUGGAUAUGGCACGCAAGUUUCUACCGGGCACCGUAAAUGUCCGACUGGAGCCGUUCGGGCGGCUAUAAACAGACCUCAGGCCCGAAGCGUGGCGGCACCUGCCGCCGGUGGUAAAAAAGAUCGGAAGAGCACACGUCU is higher in “aptazyme ON/OFF ratio” value: 1.06 for the first, 1.33 for the second.

Compared with GGGUCGAACGUACAUAAUCGCGUGGAUAUGGCACGCAAGUUUCUACCGGGCACCGUAAAUGUCCGACUGGAGCCGUUCGGGCGGCUAUAAACAGACCUCAGGCCCGAAGCGUGGCGGCACCUGCCGCCGGUGGUAAAAAAGAUCGGAAGAGCACACGUCU, GGGUCGAACGUUCAUAAUCGCGUGGAUAUGGCACGCAAGUUUCUACCGGGCACCGUAAAUGUCCGACUGGAGCCGUUCGGGCGGCUAUAAACAGACCUCAGGCCCGAAGCGUGGCGGCACCUGCCGCCGGUGGUAAAAAAGAUCGGAAGAGCACACGUCU is higher in “aptazyme ON/OFF ratio” value: 1.1 for the first, 1.41 for the second.

First: GGGUCGAACCGGUAUAAUCGCGUGGAUAUGGCACGCAAGUUUCUACCGGGCACCGUAAAUGUCCGACUGGAGCCGUUCGGGCGGCUAUAAACAGACCUCAGGCCCGAAGCGUGGCGGCACCUGCCGCCGGUGGUAAAAAAGAUCGGAAGAGCACACGUCU
Second: GGGUCGAACCGGAAUAAUCGCGUGGAUAUGGCACGCAAGUUUCUACCGGGCACCGUAAAUGUCCGACUGGAGCCGUUCGGGCGGCUAUAAACAGACCUCAGGCCCGAAGCGUGGCGGCACCUGCCGCCGGUGGUAAAAAAGAUCGGAAGAGCACACGUCU
The “aptazyme ON/OFF ratio” value of the first is lower: 1.08 for the first, 1.1 for the second.

Going from GGGUCGAACCGGGAUAAUCGCGUGGAUAUGGCACGCAAGUUUCUACCGGGCACCGUAAAUGUCCGACUGGAGCCGUUCGGGCGGCUAUAAACAGACCUCAGGCCCGAAGCGUGGCGGCACCUGCCGCCGGUGGUAAAAAAGAUCGGAAGAGCACACGUCU to GGGUCGAACGACCAUAAUCGCGUGGAUAUGGCACGCAAGUUUCUACCGGGCACCGUAAAUGUCCGACUGGAGCCGUUCGGGCGGCUAUAAACAGACCUCAGGCCCGAAGCGUGGCGGCACCUGCCGCCGGUGGUAAAAAAGAUCGGAAGAGCACACGUCU, the “aptazyme ON/OFF ratio” value falls from 1.08 to 1.06.

First: GGGUCGAACGAACAUAAUCGCGUGGAUAUGGCACGCAAGUUUCUACCGGGCACCGUAAAUGUCCGACUGGAGCCGUUCGGGCGGCUAUAAACAGACCUCAGGCCCGAAGCGUGGCGGCACCUGCCGCCGGUGGUAAAAAAGAUCGGAAGAGCACACGUCU
Second: GGGUCGAACGUGGAUAAUCGCGUGGAUAUGGCACGCAAGUUUCUACCGGGCACCGUAAAUGUCCGACUGGAGCCGUUCGGGCGGCUAUAAACAGACCUCAGGCCCGAAGCGUGGCGGCACCUGCCGCCGGUGGUAAAAAAGAUCGGAAGAGCACACGUCU
The “aptazyme ON/OFF ratio” value of the first is higher: 1.29 for the first, 1.11 for the second.

GGGUCGAACGUGAAUAAUCGCGUGGAUAUGGCACGCAAGUUUCUACCGGGCACCGUAAAUGUCCGACUGGAGCCGUUCGGGCGGCUAUAAACAGACCUCAGGCCCGAAGCGUGGCGGCACCUGCCGCCGGUGGUAAAAAAGAUCGGAAGAGCACACGUCU and GGGUCGAACGUGUAUAAUCGCGUGGAUAUGGCACGCAAGUUUCUACCGGGCACCGUAAAUGUCCGACUGGAGCCGUUCGGGCGGCUAUAAACAGACCUCAGGCCCGAAGCGUGGCGGCACCUGCCGCCGGUGGUAAAAAAGAUCGGAAGAGCACACGUCU are the same in “aptazyme ON/OFF ratio” value: 1.22 for the first, 1.22 for the second.
